Reference: patent US20180037644A1 (Pfizer, published 2018)

Target: T1, human IL-33 WT (R&D) (human, UniProt O95760 112-270)
T1 construct: R&D Systems Cat. No. 3625-IL/CF, wild-type cysteines; DTT pretreatment in some assays is said under assay or readout; also called IL-33 (R&D); hIL-33 (R&D)
T1 sequence: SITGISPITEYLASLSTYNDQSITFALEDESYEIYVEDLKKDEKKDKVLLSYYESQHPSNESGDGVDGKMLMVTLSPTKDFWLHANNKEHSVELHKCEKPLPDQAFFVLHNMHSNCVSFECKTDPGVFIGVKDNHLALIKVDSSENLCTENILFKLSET
Assay: Octet, captured on anti-Fc tip; IL-33 premixed with IL33-158LS (competitor)

binding result: binds
B1: IL33-271 (antibody, human IgG1, kappa, V domains shown)
VH: QVLLVQSGAEVKKPGATVKVSCKASGSTFTGYYMHWVRQAPGQGLEWMGWINPNNGGTNYAQKFQGRVTMTRDTSISTAYMELSRLRSDDTAVYYCARELRYNWKSWGQGTLVTVSS
VL: EIVLTQSPGTLSLSPGERVTLSCRASQSVGRPYLAWYQQIPGQAPRLLIYGASSRATDIPDRFSGNGSGTDFTLTISRLEPEDFAVYYCQQYDNSPYTFGQGTRLEIKR
notes: also called control non-neutralizing anti-IL-33 antibody
